According to article PMC3737524, “The role of the C-terminal helix of U1A protein in the interaction with U1hpII RNA”:

How the values were obtained:
Conditions in all cases: protein: recombinant; tags: N-terminal His6; label: 5' biotin; hairpin
[1] = target: U1A Ile94Pro (UniProt P09012 1-101, I94P); experiment: SPR; ka 1.2e8 M-1s-1; kd 6e-2 s-1; Biacore 2000 SPR; running buffer with 125 ug/ml yeast tRNA and 62.5 ug/ml acetylated BSA; buffer, salt, pH and temperature as previously described (not given in material)
Chain of U1A Ile94Pro (P09012 1-101 I94P): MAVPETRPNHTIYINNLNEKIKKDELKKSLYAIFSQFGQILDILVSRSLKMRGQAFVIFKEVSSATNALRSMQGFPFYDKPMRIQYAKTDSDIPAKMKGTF

[2] = target: U1A Asp92Ala (UniProt P09012 1-101, D92A); experiment: SPR; ka 3.3e7 M-1s-1; kd 1.1e-3 s-1; Biacore 2000 SPR; running buffer with 125 ug/ml yeast tRNA and 62.5 ug/ml acetylated BSA; buffer, salt, pH and temperature as previously described (not given in material)
Chain of U1A Asp92Ala (P09012 1-101 D92A): as the sequence (P09012 1-101 I94P) above, with D92A, P94I counted along it

[3] = target: U1A Asp92Phe (UniProt P09012 1-101, D92F); experiment: SPR; ka 6e7 M-1s-1; kd 1.0e-3 s-1; Biacore 2000 SPR; running buffer with 125 ug/ml yeast tRNA and 62.5 ug/ml acetylated BSA; buffer, salt, pH and temperature as previously described (not given in material)
Chain of U1A Asp92Phe (P09012 1-101 D92F): as the sequence (P09012 1-101 I94P) above, with D92F, P94I counted along it

[4] = target: U1A Thr11Ala (UniProt P09012 1-101, T11A); experiment: SPR; ka 7.1e7 M-1s-1; kd 1.5e-2 s-1; Biacore 2000 SPR; running buffer with 125 ug/ml yeast tRNA and 62.5 ug/ml acetylated BSA; buffer, salt, pH and temperature as previously described (not given in material)
Chain of U1A Thr11Ala (P09012 1-101 T11A): as the sequence (P09012 1-101 I94P) above, with T11A, P94I counted along it

[5] = target: U1A95 (UniProt P09012 1-95); experiment: SPR; ka 2.3e7 M-1s-1; kd 1.8e-2 s-1; Biacore 2000 SPR; running buffer with 125 ug/ml yeast tRNA and 62.5 ug/ml acetylated BSA; buffer, salt, pH and temperature as previously described (not given in material)
Chain of U1A95 (P09012 1-95): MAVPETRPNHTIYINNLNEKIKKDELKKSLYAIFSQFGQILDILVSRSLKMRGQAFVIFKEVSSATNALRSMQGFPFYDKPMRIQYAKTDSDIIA

[6] = target: U1A Asp92Glu (UniProt P09012 1-101, D92E); experiment: SPR; ka 4e7 M-1s-1; kd 9e-4 s-1; Biacore 2000 SPR; running buffer with 125 ug/ml yeast tRNA and 62.5 ug/ml acetylated BSA; buffer, salt, pH and temperature as previously described (not given in material)
Chain of U1A Asp92Glu (P09012 1-101 D92E): as the sequence (P09012 1-101 I94P) above, with D92E, P94I counted along it

[7] = target: U1A90 (UniProt P09012 1-90); experiment: SPR; ka 2.3e8 M-1s-1; kd 1.0 s-1; Biacore 2000 SPR; running buffer with 125 ug/ml yeast tRNA and 62.5 ug/ml acetylated BSA; buffer, salt, pH and temperature as previously described (not given in material)
Chain of U1A90 (P09012 1-90): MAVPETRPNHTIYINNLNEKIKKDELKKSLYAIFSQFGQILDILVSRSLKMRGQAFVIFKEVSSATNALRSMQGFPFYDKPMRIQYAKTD

AGCUUAUCCAUUGCACUCCGGAUGAGCU (structured_RNA) [U1hpII]
Kd [1]: 0.5 nM
Kd [2]: 0.041 nM
Kd [3]: 0.02 nM
Kd [4]: 0.21 nM
Kd [5]: 0.82 nM
Kd [6]: 0.02 nM
Kd [7]: 4.5 nM
